T1: Human full length B7-H3 (human, UniProt Q5ZPR3 29-534)
T1 sequence: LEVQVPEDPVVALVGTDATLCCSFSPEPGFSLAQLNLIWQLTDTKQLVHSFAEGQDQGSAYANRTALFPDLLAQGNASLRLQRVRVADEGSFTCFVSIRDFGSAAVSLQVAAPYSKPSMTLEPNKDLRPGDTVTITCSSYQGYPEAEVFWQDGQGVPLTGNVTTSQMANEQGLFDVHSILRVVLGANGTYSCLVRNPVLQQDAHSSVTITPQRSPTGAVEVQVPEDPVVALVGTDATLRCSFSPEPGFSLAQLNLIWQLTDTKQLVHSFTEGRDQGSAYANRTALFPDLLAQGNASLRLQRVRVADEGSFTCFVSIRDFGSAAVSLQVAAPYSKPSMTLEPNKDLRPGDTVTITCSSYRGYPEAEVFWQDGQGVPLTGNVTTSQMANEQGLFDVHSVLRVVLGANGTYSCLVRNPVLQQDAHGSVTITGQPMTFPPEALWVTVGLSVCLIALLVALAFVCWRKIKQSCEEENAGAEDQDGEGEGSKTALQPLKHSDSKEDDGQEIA


Target: T1, Human full length B7-H3
Experiment: cell-based or functional assay

| Binder | EC50 nM H1650 (tumor cell cytotoxicity) [nM] |
| --- | --- |
| huAb3v2.5-TX (antibody, human IgG1, kappa, L234A L235A, V domains shown, synthon TX on reduced interchain Cys) VH: EVQLVQSGAEVKKPGSSVKVSCKASGYTFSSYWMHWVRQAPGQGLEWIGLIHPESGSTNYNEMFKNRATLTVDRSTSTAYMELSSLRSEDTAVYYCAGGGRLYFDYWGQGTTVTVSS VL: DIVMTQSPLSLPVTPGEPASISCRSSQSLVHSNRDTYLRWYLQKPGQSPQLLIYKVSNRFSGVPDRFSGSGSGTDFTLKISRVEAEDVGVYYCSQSTHVPYTFGGGTKVEIKR | 0.62 |
| huAb3v2.5-TV (antibody, human IgG1, kappa, L234A L235A, V domains shown, synthon TV on reduced interchain Cys) VH: EVQLVQSGAEVKKPGSSVKVSCKASGYTFSSYWMHWVRQAPGQGLEWIGLIHPESGSTNYNEMFKNRATLTVDRSTSTAYMELSSLRSEDTAVYYCAGGGRLYFDYWGQGTTVTVSS VL: DIVMTQSPLSLPVTPGEPASISCRSSQSLVHSNRDTYLRWYLQKPGQSPQLLIYKVSNRFSGVPDRFSGSGSGTDFTLKISRVEAEDVGVYYCSQSTHVPYTFGGGTKVEIKR | 0.53 |
| huAb3v2.5-YY (antibody, human IgG1, kappa, L234A L235A, V domains shown, synthon YY on reduced interchain Cys) VH: EVQLVQSGAEVKKPGSSVKVSCKASGYTFSSYWMHWVRQAPGQGLEWIGLIHPESGSTNYNEMFKNRATLTVDRSTSTAYMELSSLRSEDTAVYYCAGGGRLYFDYWGQGTTVTVSS VL: DIVMTQSPLSLPVTPGEPASISCRSSQSLVHSNRDTYLRWYLQKPGQSPQLLIYKVSNRFSGVPDRFSGSGSGTDFTLKISRVEAEDVGVYYCSQSTHVPYTFGGGTKVEIKR | 0.71 |
| huAb13v1-XW (antibody, human IgG1, kappa, L234A L235A, V domains shown, synthon XW on reduced interchain Cys) VH: EVQLQESGPGLVKPSETLSLTCAVTGYSITSGYSWHWIRQFPGNGLEWMGYIHSSGSTNYNPSLKSRISISRDTSKNQFFLKLSSVTAADTAVYYCAGYDDYFEYWGQGTTVTVSS VL: DIQMTQSPSSLSASVGDRVTITCKASQNVGFNVAWYQQKPGKSPKALIYSASYRYSGVPSRFSGSGSGTDFTLTISSLQPEDFAEYFCQQYNWYPFTFGQGTKLEIKR | 0.86 |
| huAb13v1-SE (antibody, human IgG1, kappa, L234A L235A, V domains shown, synthon SE on reduced interchain Cys) VH: EVQLQESGPGLVKPSETLSLTCAVTGYSITSGYSWHWIRQFPGNGLEWMGYIHSSGSTNYNPSLKSRISISRDTSKNQFFLKLSSVTAADTAVYYCAGYDDYFEYWGQGTTVTVSS VL: DIQMTQSPSSLSASVGDRVTITCKASQNVGFNVAWYQQKPGKSPKALIYSASYRYSGVPSRFSGSGSGTDFTLTISSLQPEDFAEYFCQQYNWYPFTFGQGTKLEIKR | 0.63 |
| huAb13v1-YG (antibody, human IgG1, kappa, L234A L235A, V domains shown, synthon YG on reduced interchain Cys) VH: EVQLQESGPGLVKPSETLSLTCAVTGYSITSGYSWHWIRQFPGNGLEWMGYIHSSGSTNYNPSLKSRISISRDTSKNQFFLKLSSVTAADTAVYYCAGYDDYFEYWGQGTTVTVSS VL: DIQMTQSPSSLSASVGDRVTITCKASQNVGFNVAWYQQKPGKSPKALIYSASYRYSGVPSRFSGSGSGTDFTLTISSLQPEDFAEYFCQQYNWYPFTFGQGTKLEIKR | 0.33 |
| huAb13v1-KZ (antibody, human IgG1, kappa, L234A L235A, V domains shown, synthon KZ on reduced interchain Cys) VH: EVQLQESGPGLVKPSETLSLTCAVTGYSITSGYSWHWIRQFPGNGLEWMGYIHSSGSTNYNPSLKSRISISRDTSKNQFFLKLSSVTAADTAVYYCAGYDDYFEYWGQGTTVTVSS VL: DIQMTQSPSSLSASVGDRVTITCKASQNVGFNVAWYQQKPGKSPKALIYSASYRYSGVPSRFSGSGSGTDFTLTISSLQPEDFAEYFCQQYNWYPFTFGQGTKLEIKR | 179 |
| huAb13v1-SR (antibody, human IgG1, kappa, L234A L235A, V domains shown, synthon SR on reduced interchain Cys) VH: EVQLQESGPGLVKPSETLSLTCAVTGYSITSGYSWHWIRQFPGNGLEWMGYIHSSGSTNYNPSLKSRISISRDTSKNQFFLKLSSVTAADTAVYYCAGYDDYFEYWGQGTTVTVSS VL: DIQMTQSPSSLSASVGDRVTITCKASQNVGFNVAWYQQKPGKSPKALIYSASYRYSGVPSRFSGSGSGTDFTLTISSLQPEDFAEYFCQQYNWYPFTFGQGTKLEIKR | 0.59 |
